Results taken from PMC7671685.
“And” between values parts separate entries of the source, which are not always exact repeats. Equal values may be shown once.

Molecular target: proinsulin 2 (mouse (endogenous in MIN6))
Test: non-reducing SDS-PAGE of immunoprecipitates (disulfide-linked forms) + mass spectrometry of the excised band; MIN6 cells treated with 50 µM olanzapine; pulse-chase, immunoprecipitation with anti-insulin #8138, non-reducing SDS-PAGE and autoradiography; for mass spectrometry cells were lysed in 1% NP40 with 10 mM NEM and the HMP-1 band was excised

stoichiometry N: 2 and 3
Substance: proinsulin 2 (natural protein)
